# According to patent US20180155451A1 (published 2018):
# T1: FcγRIIb extracellular domain with C-terminal His tag (human, UniProt P31994 43-217)
# T1 construct: extracellular domain; expressed in FreeStyle293 cells; analyte in the Biacore assay; also called FcgRIIb; 2b; not shown: His tag at the C terminus
# T1 sequence (looked up): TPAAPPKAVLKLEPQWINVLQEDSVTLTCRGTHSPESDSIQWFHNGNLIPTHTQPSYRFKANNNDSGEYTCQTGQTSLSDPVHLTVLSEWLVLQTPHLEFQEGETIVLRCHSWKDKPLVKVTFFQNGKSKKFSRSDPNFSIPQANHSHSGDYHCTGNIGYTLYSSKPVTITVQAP
# B1: GpH7-B3 variant K334_01G/GpL16-k0 (antibody, human IgG1, kappa)
# heavy: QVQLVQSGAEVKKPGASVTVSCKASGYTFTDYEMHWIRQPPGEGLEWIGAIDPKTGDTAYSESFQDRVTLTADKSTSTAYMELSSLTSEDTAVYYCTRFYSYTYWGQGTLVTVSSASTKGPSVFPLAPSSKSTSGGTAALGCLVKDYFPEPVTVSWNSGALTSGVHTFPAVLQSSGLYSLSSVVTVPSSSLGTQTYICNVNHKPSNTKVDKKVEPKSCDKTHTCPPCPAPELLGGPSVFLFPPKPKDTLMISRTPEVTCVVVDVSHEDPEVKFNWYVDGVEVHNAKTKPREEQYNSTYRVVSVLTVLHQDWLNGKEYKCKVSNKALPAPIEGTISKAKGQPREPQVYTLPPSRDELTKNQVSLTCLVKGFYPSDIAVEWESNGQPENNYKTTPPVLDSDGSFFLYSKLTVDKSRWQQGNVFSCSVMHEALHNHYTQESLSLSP
# light: DIVMTQSPLSLPVTPGEPASISCQASESLVHSNRNTYLHWYLQKPGQSPQLLIYKVSNRFSGVPDRFSGSGSGTDFTLKISRVEAEDVGVYYCSQNTHVPPTFGQGTKVEIERTVAAPSVFIFPPSDEQLKSGTASVVCLLNNFYPREAKVQWKVDNALQSGNSQESVTEQDSKDSTYSLSSTLTLSKADYEKHKVYACEVTHQGLSSPVTKSFNRGEC
# notes: homodimerized IgG1, mutation in both H chains; also called Ho Ab
# B2: GpH7-B3 variant I336_02A/GpL16-k0 (antibody, human IgG1, kappa)
# heavy: not shown
# light: B1 light
# notes: as for B1
# B3: GpH7-B3 variant K326_14T/GpL16-k0 (antibody, human IgG1, kappa)
# heavy: not shown
# light: B1 light
# notes: as for B1
# B4: GpH7-B3 variant K334_03V/GpL16-k0 (antibody, human IgG1, kappa)
# heavy: not shown
# light: B1 light
# notes: as for B1
# B5: GpH7-B3 variant I332_14T/GpL16-k0 (antibody, human IgG1, kappa)
# heavy: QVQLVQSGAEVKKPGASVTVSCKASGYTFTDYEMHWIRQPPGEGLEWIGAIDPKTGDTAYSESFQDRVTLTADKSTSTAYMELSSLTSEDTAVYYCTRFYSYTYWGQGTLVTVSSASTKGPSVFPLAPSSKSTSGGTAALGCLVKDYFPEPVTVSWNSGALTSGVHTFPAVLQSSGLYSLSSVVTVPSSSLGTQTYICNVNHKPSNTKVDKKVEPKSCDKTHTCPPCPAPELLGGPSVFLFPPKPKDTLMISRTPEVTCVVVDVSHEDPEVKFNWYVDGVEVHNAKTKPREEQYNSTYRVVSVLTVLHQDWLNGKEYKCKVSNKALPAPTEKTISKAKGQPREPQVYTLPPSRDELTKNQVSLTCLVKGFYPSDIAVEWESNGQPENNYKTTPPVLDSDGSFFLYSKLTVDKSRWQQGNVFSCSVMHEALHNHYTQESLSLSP
# light: B1 light
# notes: as for B1
# B6: GpH7-B3 variant I336_14T/GpL16-k0 (antibody, human IgG1, kappa)
# heavy: not shown
# light: B1 light
# notes: as for B1
# B7: GpH7-B3 variant A330_20W/GpL16-k0 (antibody, human IgG1, kappa)
# heavy: not shown
# light: B1 light
# notes: as for B1
# B8: GpH7-B3 variant I336_03V/GpL16-k0 (antibody, human IgG1, kappa)
# heavy: not shown
# light: B1 light
# notes: as for B1
# B9: GpH7-B3 variant K334_07I/GpL16-k0 (antibody, human IgG1, kappa)
# heavy: not shown
# light: B1 light
# notes: as for B1
# B10: GpH7-B3 variant K334_02A/GpL16-k0 (antibody, human IgG1, kappa)
# heavy: not shown
# light: B1 light
# notes: as for B1
# B11: GpH7-B3 variant I332_02A/GpL16-k0 (antibody, human IgG1, kappa)
# heavy: not shown
# light: B1 light
# notes: as for B1
# B12: GpH7-B3 variant K326_03V/GpL16-k0 (antibody, human IgG1, kappa)
# heavy: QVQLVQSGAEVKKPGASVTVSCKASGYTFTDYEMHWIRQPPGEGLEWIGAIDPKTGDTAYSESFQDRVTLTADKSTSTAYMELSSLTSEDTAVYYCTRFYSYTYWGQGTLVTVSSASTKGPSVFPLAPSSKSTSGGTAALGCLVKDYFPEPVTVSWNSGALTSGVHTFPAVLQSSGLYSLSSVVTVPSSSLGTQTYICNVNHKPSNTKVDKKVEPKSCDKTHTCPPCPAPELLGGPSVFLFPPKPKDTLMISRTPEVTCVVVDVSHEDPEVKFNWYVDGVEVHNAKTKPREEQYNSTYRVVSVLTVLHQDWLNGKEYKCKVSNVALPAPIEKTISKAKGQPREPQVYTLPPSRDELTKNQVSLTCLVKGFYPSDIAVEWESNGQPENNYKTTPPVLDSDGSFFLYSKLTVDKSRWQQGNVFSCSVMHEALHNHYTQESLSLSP
# light: B1 light
# notes: as for B1
# B13: GpH7-B3 variant I332_13S/GpL16-k0 (antibody, human IgG1, kappa)
# heavy: not shown
# light: B1 light
# notes: as for B1
# B14: GpH7-B3 variant I336_06M/GpL16-k0 (antibody, human IgG1, kappa)
# heavy: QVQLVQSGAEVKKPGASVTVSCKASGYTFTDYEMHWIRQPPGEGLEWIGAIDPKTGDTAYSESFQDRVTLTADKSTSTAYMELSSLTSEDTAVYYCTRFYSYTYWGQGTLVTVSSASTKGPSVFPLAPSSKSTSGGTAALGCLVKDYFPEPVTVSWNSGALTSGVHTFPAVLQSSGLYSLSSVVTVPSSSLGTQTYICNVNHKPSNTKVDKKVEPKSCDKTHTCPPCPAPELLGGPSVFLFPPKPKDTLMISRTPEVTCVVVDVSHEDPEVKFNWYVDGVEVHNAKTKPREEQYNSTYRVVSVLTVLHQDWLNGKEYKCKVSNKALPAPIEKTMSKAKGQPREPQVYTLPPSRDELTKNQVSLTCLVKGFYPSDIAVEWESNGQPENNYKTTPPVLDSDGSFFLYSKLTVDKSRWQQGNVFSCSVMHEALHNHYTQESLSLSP
# light: B1 light
# notes: as for B1
# B15: GpH7-B3 variant K334_05P/GpL16-k0 (antibody, human IgG1, kappa)
# heavy: not shown
# light: B1 light
# notes: as for B1
# B16: GpH7-B3 variant K334_08L/GpL16-k0 (antibody, human IgG1, kappa)
# heavy: not shown
# light: B1 light
# notes: as for B1
# B17: GpH7-B3 variant I336_13S/GpL16-k0 (antibody, human IgG1, kappa)
# heavy: not shown
# light: B1 light
# notes: as for B1
# B18: GpH7-B3 variant A330_04F/GpL16-k0 (antibody, human IgG1, kappa)
# heavy: not shown
# light: B1 light
# notes: as for B1
# B19: GpH7-B3 variant I336_10E/GpL16-k0 (antibody, human IgG1, kappa)
# heavy: not shown
# light: B1 light
# notes: as for B1
# B20: GpH7-B3 variant K326_08L/GpL16-k0 (antibody, human IgG1, kappa)
# heavy: not shown
# light: B1 light
# notes: as for B1
# B21: GpH7-B3 variant E333_16H/GpL16-k0 (antibody, human IgG1, kappa)
# heavy: not shown
# light: B1 light
# notes: as for B1
# B22: GpH7-B3 variant K326_06M/GpL16-k0 (antibody, human IgG1, kappa)
# heavy: not shown
# light: B1 light
# notes: as for B1
# B23: GpH7-B3 variant K326_19Q/GpL16-k0 (antibody, human IgG1, kappa)
# heavy: not shown
# light: B1 light
# notes: as for B1
# B24: GpH7-B3 variant A330_08L/GpL16-k0 (antibody, human IgG1, kappa)
# heavy: not shown
# light: B1 light
# notes: as for B1
# B25: GpH7-B3 variant K326_10E/GpL16-k0 (antibody, human IgG1, kappa)
# heavy: not shown
# light: B1 light
# notes: as for B1
# B26: GpH7-B3 variant K326_04F/GpL16-k0 (antibody, human IgG1, kappa)
# heavy: not shown
# light: B1 light
# notes: as for B1
# B27: GpH7-B3 variant I336_09D/GpL16-k0 (antibody, human IgG1, kappa)
# heavy: not shown
# light: B1 light
# notes: as for B1
# B28: GpH7-B3 variant H268_09D/GpL16-k0 (antibody, human IgG1, kappa)
# heavy: not shown
# light: B1 light
# notes: as for B1
# B29: GpH7-B3 variant K334_14T/GpL16-k0 (antibody, human IgG1, kappa)
# heavy: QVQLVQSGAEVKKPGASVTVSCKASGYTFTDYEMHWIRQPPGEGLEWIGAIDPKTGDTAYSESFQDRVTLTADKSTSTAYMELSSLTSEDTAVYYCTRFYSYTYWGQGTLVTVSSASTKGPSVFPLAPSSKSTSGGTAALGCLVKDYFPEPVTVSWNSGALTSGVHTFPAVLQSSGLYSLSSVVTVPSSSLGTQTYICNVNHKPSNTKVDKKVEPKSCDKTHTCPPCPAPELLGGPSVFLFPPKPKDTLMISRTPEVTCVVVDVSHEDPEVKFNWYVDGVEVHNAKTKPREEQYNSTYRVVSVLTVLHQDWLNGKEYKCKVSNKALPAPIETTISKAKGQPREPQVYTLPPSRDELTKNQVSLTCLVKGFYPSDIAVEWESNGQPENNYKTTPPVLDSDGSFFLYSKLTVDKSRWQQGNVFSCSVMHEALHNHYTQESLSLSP
# light: B1 light
# notes: as for B1
# B30: GpH7-B3 variant H268_10E/GpL16-k0 (antibody, human IgG1, kappa)
# heavy: not shown
# light: B1 light
# notes: as for B1
# B31: GpH7-B3 variant I332_10E/GpL16-k0 (antibody, human IgG1, kappa)
# heavy: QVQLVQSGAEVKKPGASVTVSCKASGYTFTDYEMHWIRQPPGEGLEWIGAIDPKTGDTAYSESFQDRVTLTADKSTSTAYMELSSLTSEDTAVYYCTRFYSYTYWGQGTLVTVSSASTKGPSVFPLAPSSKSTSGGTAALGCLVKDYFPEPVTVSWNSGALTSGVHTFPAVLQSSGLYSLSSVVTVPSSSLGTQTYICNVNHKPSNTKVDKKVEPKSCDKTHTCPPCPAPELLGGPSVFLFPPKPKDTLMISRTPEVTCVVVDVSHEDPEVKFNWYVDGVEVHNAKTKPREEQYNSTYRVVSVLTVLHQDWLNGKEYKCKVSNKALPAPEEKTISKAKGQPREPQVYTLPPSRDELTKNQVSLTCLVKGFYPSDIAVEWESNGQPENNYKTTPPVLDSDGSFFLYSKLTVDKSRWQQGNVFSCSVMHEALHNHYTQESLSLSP
# light: B1 light
# notes: as for B1
# B32: GpH7-B3 variant I332_15Y/GpL16-k0 (antibody, human IgG1, kappa)
# heavy: not shown
# light: B1 light
# notes: as for B1
# B33: GpH7-B3 variant I332_01G/GpL16-k0 (antibody, human IgG1, kappa)
# heavy: not shown
# light: B1 light
# notes: as for B1
# B34: GpH7-B3 variant K326_07I/GpL16-k0 (antibody, human IgG1, kappa)
# heavy: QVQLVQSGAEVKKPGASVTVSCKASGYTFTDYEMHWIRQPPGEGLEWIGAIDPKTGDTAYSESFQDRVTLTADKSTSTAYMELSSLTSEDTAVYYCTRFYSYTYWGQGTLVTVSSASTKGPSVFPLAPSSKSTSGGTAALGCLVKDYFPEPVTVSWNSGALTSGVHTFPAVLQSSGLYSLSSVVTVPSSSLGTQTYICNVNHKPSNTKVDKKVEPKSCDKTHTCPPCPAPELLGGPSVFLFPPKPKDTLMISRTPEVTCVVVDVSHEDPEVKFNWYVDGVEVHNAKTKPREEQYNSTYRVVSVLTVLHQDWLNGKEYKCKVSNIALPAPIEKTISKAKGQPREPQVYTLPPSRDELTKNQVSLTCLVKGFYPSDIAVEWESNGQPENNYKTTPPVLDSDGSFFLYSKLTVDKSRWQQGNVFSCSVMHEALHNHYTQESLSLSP
# light: B1 light
# notes: as for B1
# B35: GpH7-B3 variant I332_19Q/GpL16-k0 (antibody, human IgG1, kappa)
# heavy: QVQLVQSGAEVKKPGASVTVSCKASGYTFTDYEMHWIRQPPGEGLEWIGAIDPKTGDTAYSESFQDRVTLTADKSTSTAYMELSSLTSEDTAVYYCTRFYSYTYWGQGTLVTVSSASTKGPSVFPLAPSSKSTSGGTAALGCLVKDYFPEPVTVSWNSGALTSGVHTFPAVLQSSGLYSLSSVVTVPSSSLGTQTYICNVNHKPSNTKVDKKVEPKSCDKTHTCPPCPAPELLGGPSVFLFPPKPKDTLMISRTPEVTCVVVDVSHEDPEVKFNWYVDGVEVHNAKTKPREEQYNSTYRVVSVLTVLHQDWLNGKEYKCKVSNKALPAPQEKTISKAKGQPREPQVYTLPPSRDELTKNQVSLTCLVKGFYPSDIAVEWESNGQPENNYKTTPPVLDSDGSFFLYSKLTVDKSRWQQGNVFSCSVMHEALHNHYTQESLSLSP
# light: B1 light
# notes: as for B1
# B36: GpH7-B3 variant K334_09D/GpL16-k0 (antibody, human IgG1, kappa)
# heavy: not shown
# light: B1 light
# notes: as for B1
# B37: GpH7-B3 variant I332_09D/GpL16-k0 (antibody, human IgG1, kappa)
# heavy: not shown
# light: B1 light
# notes: as for B1
# B38: GpH7-B3 variant H268_13S/GpL16-k0 (antibody, human IgG1, kappa)
# heavy: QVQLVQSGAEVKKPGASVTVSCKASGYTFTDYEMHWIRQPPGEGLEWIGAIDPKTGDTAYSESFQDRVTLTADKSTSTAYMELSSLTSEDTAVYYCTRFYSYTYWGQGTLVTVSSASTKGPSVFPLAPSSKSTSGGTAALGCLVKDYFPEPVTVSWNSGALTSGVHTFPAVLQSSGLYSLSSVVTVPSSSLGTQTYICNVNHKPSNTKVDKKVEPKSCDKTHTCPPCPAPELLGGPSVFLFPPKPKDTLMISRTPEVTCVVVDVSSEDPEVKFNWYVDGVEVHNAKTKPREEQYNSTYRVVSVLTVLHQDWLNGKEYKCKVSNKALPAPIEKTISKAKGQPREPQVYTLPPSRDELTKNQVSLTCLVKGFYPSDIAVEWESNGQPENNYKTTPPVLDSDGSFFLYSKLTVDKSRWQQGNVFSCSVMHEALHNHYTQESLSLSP
# light: B1 light
# notes: as for B1
# B39: GpH7-B3 variant K326_09D/GpL16-k0 (antibody, human IgG1, kappa)
# heavy: not shown
# light: B1 light
# notes: as for B1
# B40: GpH7-B3 variant K334_04F/GpL16-k0 (antibody, human IgG1, kappa)
# heavy: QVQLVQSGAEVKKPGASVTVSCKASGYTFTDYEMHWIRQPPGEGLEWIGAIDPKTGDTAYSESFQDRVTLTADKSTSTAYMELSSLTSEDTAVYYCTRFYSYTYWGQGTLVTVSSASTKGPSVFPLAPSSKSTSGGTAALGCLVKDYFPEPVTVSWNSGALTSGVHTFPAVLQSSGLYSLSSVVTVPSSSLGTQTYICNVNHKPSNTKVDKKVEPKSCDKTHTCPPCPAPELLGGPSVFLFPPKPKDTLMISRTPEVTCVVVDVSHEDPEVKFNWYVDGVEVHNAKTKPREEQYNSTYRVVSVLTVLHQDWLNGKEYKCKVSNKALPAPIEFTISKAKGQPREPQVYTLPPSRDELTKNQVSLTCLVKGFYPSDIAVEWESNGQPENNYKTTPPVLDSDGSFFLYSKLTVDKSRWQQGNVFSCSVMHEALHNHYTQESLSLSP
# light: B1 light
# notes: as for B1
# B41: GpH7-B3 variant K334_10E/GpL16-k0 (antibody, human IgG1, kappa)
# heavy: not shown
# light: B1 light
# notes: as for B1
# B42: GpH7-B3 variant K334_13S/GpL16-k0 (antibody, human IgG1, kappa)
# heavy: not shown
# light: B1 light
# notes: as for B1
# B43: GpH7-B3 variant I336_18N/GpL16-k0 (antibody, human IgG1, kappa)
# heavy: not shown
# light: B1 light
# notes: as for B1
# B44: GpH7-B3 variant K326_15Y/GpL16-k0 (antibody, human IgG1, kappa)
# heavy: not shown
# light: B1 light
# notes: as for B1
# B45: GpH7-A5/GpH7-B3 variant P331_16H/GpL16-k0 (antibody, human IgG1, kappa)
# heavy 1: not shown
# heavy 2: not shown
# light: B1 light
# notes: heterodimerized; mutation in the B3 H chain only; also called He Ab P331_16H
# B46: GpH7-A5/GpH7-B3 variant P331_20W/GpL16-k0 (antibody, human IgG1, kappa)
# heavy 1: not shown
# heavy 2: not shown
# light: B1 light
# notes: heterodimerized; mutation in the B3 H chain only; also called He Ab P331_20W
# B47: GpH7-A5/GpH7-B3 variant Y296_20W/GpL16-k0 (antibody, human IgG1, kappa)
# heavy 1: not shown
# heavy 2: not shown
# light: B1 light
# notes: heterodimerized; mutation in the B3 H chain only; also called He Ab Y296_20W
# B48: GpH7-A5/GpH7-B3 variant V266_06M/GpL16-k0 (antibody, human IgG1, kappa)
# heavy 1: not shown
# heavy 2: not shown
# light: B1 light
# notes: heterodimerized; mutation in the B3 H chain only; also called He Ab V266_06M
# B49: GpH7-A5/GpH7-B3 variant T335_10E/GpL16-k0 (antibody, human IgG1, kappa)
# heavy 1: not shown
# heavy 2: not shown
# light: B1 light
# notes: heterodimerized; mutation in the B3 H chain only; also called He Ab T335_10E
# B50: GpH7-A5/GpH7-B3 variant S337_16H/GpL16-k0 (antibody, human IgG1, kappa)
# heavy 1: not shown
# heavy 2: not shown
# light: B1 light
# notes: heterodimerized; mutation in the B3 H chain only; also called He Ab S337_16H
# B51: GpH7-A5/GpH7-B3 variant T335_07I/GpL16-k0 (antibody, human IgG1, kappa)
# heavy 1: not shown
# heavy 2: not shown
# light: B1 light
# notes: heterodimerized; mutation in the B3 H chain only; also called He Ab T335_07I
# B52: GpH7-A5/GpH7-B3 variant S324_06M/GpL16-k0 (antibody, human IgG1, kappa)
# heavy 1: not shown
# heavy 2: not shown
# light: B1 light
# notes: heterodimerized; mutation in the B3 H chain only; also called He Ab S324_06M
# B53: GpH7-A5/GpH7-B3 variant S267_06M/GpL16-k0 (antibody, human IgG1, kappa)
# heavy 1: not shown
# heavy 2: not shown
# light: B1 light
# notes: heterodimerized; mutation in the B3 H chain only; also called He Ab S267_06M
# B54: GpH7-A5/GpH7-B3 variant S267_19Q/GpL16-k0 (antibody, human IgG1, kappa)
# heavy 1: not shown
# heavy 2: not shown
# light: B1 light
# notes: heterodimerized; mutation in the B3 H chain only; also called He Ab S267_19Q
# B55: GpH7-A5/GpH7-B3 variant S239_03V/GpL16-k0 (antibody, human IgG1, kappa)
# heavy 1: not shown
# heavy 2: not shown
# light: B1 light
# notes: heterodimerized; mutation in the B3 H chain only; also called He Ab S239_03V
# B56: GpH7-A5/GpH7-B3 variant T335_15Y/GpL16-k0 (antibody, human IgG1, kappa)
# heavy 1: not shown
# heavy 2: not shown
# light: B1 light
# notes: heterodimerized; mutation in the B3 H chain only; also called He Ab T335_15Y
# B57: GpH7-A5/GpH7-B3 variant S239_10E/GpL16-k0 (antibody, human IgG1, kappa)
# heavy 1: not shown
# heavy 2: not shown
# light: B1 light
# notes: heterodimerized; mutation in the B3 H chain only; also called He Ab S239_10E
# Target: T2, FcγRIIIa extracellular domain with C-terminal His tag (human, UniProt P08637 17-208)
# T2 construct: extracellular domain; also called FcgRIIIa; 3a
# Experiment: SPR, relative to GpH7-B3/GpL16-k0
# T2 sequence (P08637 17-208): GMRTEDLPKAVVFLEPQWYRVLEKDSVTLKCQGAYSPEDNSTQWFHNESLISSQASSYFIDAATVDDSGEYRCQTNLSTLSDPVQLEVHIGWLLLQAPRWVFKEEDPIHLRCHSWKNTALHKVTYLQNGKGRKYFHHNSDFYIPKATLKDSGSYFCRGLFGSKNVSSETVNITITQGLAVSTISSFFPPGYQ
row,Ho/Con_3a,Binder
1,104 % of control (=100),B1
2,104 % of control (=100),B2
3,147 % of control (=100),B3
4,170 % of control (=100),B4
5,138 % of control (=100),B5
6,123 % of control (=100),B6
7,118 % of control (=100),B7
8,110 % of control (=100),B8
9,180 % of control (=100),B9
10,154 % of control (=100),B10
11,114 % of control (=100),B11
12,137 % of control (=100),B12
13,112 % of control (=100),B13
14,107 % of control (=100),B14
15,165 % of control (=100),B15
16,178 % of control (=100),B16
17,119 % of control (=100),B17
18,174 % of control (=100),B18
19,130 % of control (=100),B19
20,114 % of control (=100),B20
21,111 % of control (=100),B21
22,129 % of control (=100),B22

row,Ho/Con_3a,Binder
1,118 % of control (=100),B23
2,138 % of control (=100),B24
3,157 % of control (=100),B25
4,103 % of control (=100),B26
5,111 % of control (=100),B27
6,220 % of control (=100),B28
7,163 % of control (=100),B29
8,2060 % of control (=100),B30
9,278 % of control (=100),B31
10,106 % of control (=100),B32
11,104 % of control (=100),B33
12,134 % of control (=100),B34
13,118 % of control (=100),B35
14,150 % of control (=100),B36
15,255 % of control (=100),B37
16,130 % of control (=100),B38
17,163 % of control (=100),B39
18,168 % of control (=100),B40
19,206 % of control (=100),B41
20,153 % of control (=100),B42
21,101 % of control (=100),B43
22,115 % of control (=100),B44

# Target: T1, FcγRIIb extracellular domain with …
# Experiment: SPR (Biacore), captured antibody, FcγRIIb analyte; binding relative to GpH7-A5/GpH7-B3/GpL16-k0 = 100
row,He/Con_2b,Binder
1,116 % of control,B45
2,111 % of control,B46
3,103 % of control,B47
4,251 % of control,B48
5,108 % of control,B49
6,105 % of control,B50
7,106 % of control,B51
8,112 % of control,B52
9,210 % of control,B53
10,218 % of control,B54
11,108 % of control,B55
12,108 % of control,B56
13,181 % of control,B57
